Where a chain is given by its changes, count along the chain named.

One may read the Kd as a measure of binding affinity in units of concentration. Read a low Kd as tighter binding. Broadly, the kon is a measure of how fast the partners come together. Low values mean slower complex formation, high ones faster complex formation. As usually defined, the IC50 is the concentration at which inhibition is half-maximal.

Experiment [1] deals with T1, recombinant human VEGF-R2-Fc (R&D Systems cat#357-KD) (human, UniProt P35968 20-764).
T1 construct: Bought reagent; also called hVEGFR2-Fc; hVEGF-R2 (KDR/Flk-1); not shown: Fc part of the bought fusion protein
T1 sequence (P35968 20-764 limits assumed): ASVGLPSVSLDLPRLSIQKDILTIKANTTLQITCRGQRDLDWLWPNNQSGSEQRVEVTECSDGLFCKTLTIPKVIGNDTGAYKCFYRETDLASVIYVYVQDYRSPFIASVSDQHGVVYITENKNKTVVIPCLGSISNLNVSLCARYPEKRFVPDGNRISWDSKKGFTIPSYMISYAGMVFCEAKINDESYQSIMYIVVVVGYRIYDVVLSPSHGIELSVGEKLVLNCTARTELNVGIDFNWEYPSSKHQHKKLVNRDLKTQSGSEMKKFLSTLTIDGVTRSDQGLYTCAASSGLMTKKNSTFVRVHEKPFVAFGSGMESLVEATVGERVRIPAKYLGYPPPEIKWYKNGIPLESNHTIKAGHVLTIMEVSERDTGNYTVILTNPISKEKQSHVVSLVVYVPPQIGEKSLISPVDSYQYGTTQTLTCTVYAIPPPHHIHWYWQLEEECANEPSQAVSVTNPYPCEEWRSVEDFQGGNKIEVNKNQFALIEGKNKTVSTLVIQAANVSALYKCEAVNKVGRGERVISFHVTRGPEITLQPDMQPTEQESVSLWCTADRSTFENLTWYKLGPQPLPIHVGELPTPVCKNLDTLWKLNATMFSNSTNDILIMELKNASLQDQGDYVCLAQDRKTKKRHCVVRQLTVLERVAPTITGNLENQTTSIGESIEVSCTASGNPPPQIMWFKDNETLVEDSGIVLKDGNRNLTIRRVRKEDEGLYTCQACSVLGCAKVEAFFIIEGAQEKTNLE
Briefly: direct binding ELISA on coated recombinant human VEGF-R2-Fc (Example 1.22). The protocol:
Plates were then washed four times with wash buffer (TBS, 0.05% Tween-20) and blocked with Superblock blocking buffer (Thermo Scientific, cat#37535). […] Following incubation, plates were washed four times with wash buffer. […] Plates were washed four times with wash buffer and developed with the addition of Enhanced K-blue TMB substrate (Neogen cat#308177). The reaction was stopped with 2N sulfuric acid (VWR, cat# BDH3500-1) and the absorbance was read at 450 nm-570 nm. […] Data was analyzed using Softmax Pro 4.8 software and IC₅₀ values calculated using a sigmoidal dose response (variable slope) fit in GraphPad Prism 5.

The target of experiment [2] is T2, Human PDGF-BB (human, UniProt P01127 82-190).
T2 construct: Recombinant human PDGF-BB, a dimer of two B chains; also called huPDGF-BB; hPDGF-BB
T2 sequence (P01127 82-190 limits assumed): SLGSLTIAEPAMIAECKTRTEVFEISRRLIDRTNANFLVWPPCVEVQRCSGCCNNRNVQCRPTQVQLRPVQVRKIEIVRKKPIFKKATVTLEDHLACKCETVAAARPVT
Briefly: Biacore SPR (Example 1.1); second of two rows for this clone. The protocol: (§1) Unreacted moieties on the biosensor surface were blocked with ethanolamine. For kinetic analysis, rate equations derived from the 1:1 Langmuir binding model were fitted simultaneously to multiple antigen injections (using global fit analysis) with the use of Scrubber 2 (BioLogic Software), Biacore Biaevaluation 4.0.1 software or Biacore T100 Evaluation software. Purified antibodies or DVD-Ig molecules were diluted in running buffer for capture across goat anti-human Fc reaction surfaces. Antibodies or DVD-Ig molecules to be captured as a ligand (1 μg/ml) were injected over reaction matrices at a flow rate of 10 μl/minute. During the assay, all measurements were referenced against the capture surface alone (i.e., with no captured antibody or DVD-Ig molecule). […] The equilibrium dissociation constant KD (M) of the reaction between antibodies and the target antigen was then calculated from the kinetic rate constants by the following formula: KD=Koff/Kₒₙ. Binding was recorded as a function of time and kinetic rate constants were calculated. In this assay, on-rates as fast as 10⁶M⁻¹s⁻¹ and off-rates as slow as 10⁻⁶ s⁻¹ could be measured.

In experiment [3] the target is T2, Human PDGF-BB. Description: Biacore SPR (Example 1.1); first of two rows for this clone. The protocol: as §1
In general terms: In SPR one partner is held on a chip, and binding of the other changes the refractive index at the surface.

The target in experiment [4] is T3, recombinant human PDGF-Rβ-Fc (R&D Systems #385-PR) (human, UniProt P09619 33-530).
T3 construct: Bought reagent; also called hPDGFRβ-Fc; huPDGF Rβ; not shown: Fc part of the bought fusion protein
T3 sequence (P09619 33-530 limits assumed): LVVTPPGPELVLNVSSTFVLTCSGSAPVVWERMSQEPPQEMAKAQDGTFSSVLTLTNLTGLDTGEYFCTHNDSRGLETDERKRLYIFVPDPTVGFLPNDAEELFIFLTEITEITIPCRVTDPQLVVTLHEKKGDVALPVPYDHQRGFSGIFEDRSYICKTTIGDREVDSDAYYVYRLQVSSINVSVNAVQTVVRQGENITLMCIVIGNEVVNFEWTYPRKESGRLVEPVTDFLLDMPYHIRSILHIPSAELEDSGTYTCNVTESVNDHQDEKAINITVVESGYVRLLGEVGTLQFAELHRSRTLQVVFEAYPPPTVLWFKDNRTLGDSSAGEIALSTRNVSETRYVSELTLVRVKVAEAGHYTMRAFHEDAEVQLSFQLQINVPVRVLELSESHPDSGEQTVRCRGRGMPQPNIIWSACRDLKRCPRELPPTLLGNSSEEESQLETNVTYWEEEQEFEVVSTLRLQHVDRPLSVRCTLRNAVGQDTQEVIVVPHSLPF
Briefly: competition ELISA: antibody on coated hPDGFRβ-Fc against hPDGF-BB-biotin (Example 1.27). The method, then:
Plates were then washed four times with wash buffer (TBS, 0.05% Tween-20) and blocked with Superblock blocking buffer (Thermo Scientific, cat#37535). During the blocking step, supernatants, antibodies and benchmark compounds were diluted in assay diluent (10% Superblock containing 0.05% surfactamps) and an eight point titration of each sample molecule was performed. The samples were added to wells and incubated for 30 minutes at 25° C. with shaking. […] This was added to wells (10 ng/mL/3.97E-10 M final concentration) and incubation was continued for 35 minutes at 25° C. with shaking. Following incubation, plates were washed four times with wash buffer. Detection reagent Streptavidin-polyHRP-40 (Fitzgerald, cat#65r-s104phrp) was diluted in assay diluent and added to plates (50 μL) for 45 minutes at 25° C. with shaking. Plates were washed four times with wash buffer and developed with the addition of Enhanced K-blue TMB substrate (Neogen, cat#308177). The reaction was stopped with 2N sulfuric acid (VWR, cat# BDH3500-1) and the absorbance was read at 450 nm-570 nm. […] Data was analyzed using Softmax Pro 4.8 software and IC₅₀ values calculated using a sigmoidal dose response (variable slope) fit in GraphPad Prism 5.
On the technique in general: An ELISA detects its analyte on a solid surface through an enzyme-linked reagent.

Experiment [5] has as its target T2, Human PDGF-BB. Description: competition ELISA: huPDGF-BB-biotin binding to coated huPDGF-Rβ-Fc (Example 1.13). The protocol: Plates were then washed four times with wash buffer (TBS, 0.05% Tween-20) and blocked with Superblock blocking buffer (Thermo Scientific, cat#37535). During the blocking step, supernatants, antibodies, benchmark compounds or DVD-Ig were diluted in assay diluent (10% Superblock containing 0.05% surfactamps) and an eight point titration of each sample molecule was performed. […] Following incubation, plates were washed four times with wash buffer. Detection reagent Streptavidin-polyHRP-40 (Fitzgerald, cat#65r-s104phrp) was diluted in assay diluent and added to plates (50 μL) for 45 minutes at 25° C. with shaking. Plates were washed four times with wash buffer and developed with the addition of Enhanced K-blue TMB substrate (Neogen, cat#308177). The reaction was stopped with 2N sulfuric acid (VWR, cat# BDH3500-1) and the absorbance was read at 450 nm-570 nm. […] Data was analyzed using Softmax Pro 4.8 software and IC₅₀ values calculated using a sigmoidal dose response (variable slope) fit in GraphPad Prism 5.

Experiment [6] concerns the target T2, Human PDGF-BB. Briefly: Biacore SPR (Example 1.1). The method, then: as §1
The target in experiment [7] is T2, Human PDGF-BB. Description: cell-based or functional assay.
In experiment [8] the target is T2, Human PDGF-BB. Briefly: Biacore SPR (Example 1.1); footnote **: heterogeneous off-rate. The method, then:
as §1

B1: BCU-3D6-C9 (antibody, V domains shown)
VH: QIQLVQSGPELKKPGESVKISCKASEYTFTDYAIHWVKQAPGKGLKWMGWINTYTGKPTYADDFKGRFVFSLEASASTANLQISNLKNEDTATYFCARDYGGYGERRDYFDYWGQGVMVTVSS
VL: DIQMTQSPASLSASLGETVTIECRVSEDIYNGLAWYQQKPGKSPQFLIYNANRLHTGVPSRFSGSGSGTQFSLKINSLQSEDVANYFCQQYYDYPLTFGSATKLEIK
notes: Rat hybridoma anti-human VEGFR II monoclonal antibody
Consider B1, for which the binding result in experiment [1] is “binds”.

B2: BDI-9E8-E7 (antibody, V domains shown)
VH: QVTLKESGPGILQPSQTLSLTCTFSGFSLSTYGMGVGWIRQPSGKGLEWLANIWWDDDKYYNPSLKNRLTISKDTSNNQAFLKITNVDTADTATYYCARIESIGTTYSFDYWGQGVMVTVSS
VL: QFTLTQPKSVSGSLRSTITIPCERSSGDIGDSYVSWYQQHLGRPPINVIYADDQRPSEVSDRFSGSIDSSSNSASLTITNLQMDDEADYFCQSYDINIDIVFGGGTKLTVL
In experiment [2], B2 returned a Kd of at most 0.1 pM and a kon of at least 1e+07 M⁻¹ s⁻¹. In experiment [3], this molecule returned a Kd of at most 0.058 pM and an on-rate constant (kon) of at least 1.7e+07 M⁻¹ s⁻¹.

B3: BDE-3C9-G4 (antibody, V domains shown)
VH: EVQLVESGGGLVQPGRSLKLSCAASGFTFSNYGMAWVRQAPTQGLEWVASITNSGGNTYYRDSVKGRFTISRDSAKNTQYLQMDSLRSEDTATYFCARHTPGANYFDYWGQGLMVTVSS
VL: DIQMTQSPPSLSASLGEKVTITCQASQSIKNYIAWYQLKPGTAPRLLMRYTSTLESGTPSRFSGSGSGRDYSFSISNVESEDIASYYCVQYANLYTFGGGTKLELK
notes: Rat hybridoma anti-human PDGFR-B monoclonal antibody, isotype IgG2b/κ
As to B3, the IC50 in experiment [4] was found to be 832 pM.

B4: BDE-4F2-D4 (antibody, V domains shown)
VH: QVQLKESGPGLMQPSQTLSLTCTVSGFSLTNYGVSWVRQFPGKGLEWIAAISSGGSTYYNSALKSRLSISRDTSRSQVFLKMNSLLTEDTAFYFCTRVYYGSNYFDYWGPGVMVTVSS
VL: DIVMTQTPSSQAVSAGEKVTMSCKSSQSLLYGGDQKNFLAWYQQKPGQSPKLLIYLASTRESGVPDRFIGSGSGTDFTLTISSVQAEDLADYYCQQHYGYPFTFGSGTKLEIK
notes: Rat hybridoma anti-human PDGFR-B monoclonal antibody, isotype IgG2a/κ
As to B4, the half-maximal inhibitory concentration (IC50) in experiment [4] turned out to be 527 pM.

B5: BFU-3E2-B9-B8 (antibody, V domains shown)
VH: EVQLQQSGPELQRPGASVKLSCKASGYTFTESYMYWVKQRPEQSLELIGRIDPEDGSTDYVEKFKNKATLTADTSSNTAYMQLSSLTSEDSATYFCARFGARSYFYPMDAWGQGTSVTVSS
VL: DTVLTQPPALAVSPGERVSISCRASESVSTLMHWYQQKPGQQPRLLIYGASNLESGVPARFSGSGSGTDFTLTIDPVEADDTATYFCQQSWNDPWTFGGGTKLELK
Consider B5, for which the IC50 in experiment [5] was above 50000 pM. In experiment [6], the Kd was at most 0.15 pM and the kon is at least 1e+07 M⁻¹ s⁻¹. In experiment [7], the “Phospho-Tyr751/hPDGF-BB Neutralization” value amounted to 0.642 nM and the “huPDGF-BB Neutralization Potency (nM) in NIH-3T3 Cells” value amounted to 0.247 nM.

B6: BFU-11A8-D6-C3 (antibody, V domains shown)
VH: B5 VH with M34I, S91T
VL: B5 VL with P7S, A9T, S21P
In turn, B6 had a 50% inhibitory concentration (IC50) in experiment [5] of 7100 pM. Also, in experiment [6], the Kd is at most 0.047 pM and the kon was 2.1e+07 M⁻¹ s⁻¹. In addition, in experiment [7], the “Phospho-Tyr751/hPDGF-BB Neutralization” value was 0.736 nM and the “huPDGF-BB Neutralization Potency (nM) in NIH-3T3 Cells” value was 0.344 nM.

B7: BDI-1E1-D5 (antibody, V domains shown)
VH: EVKLQQSGDELVRPGASVKMSCKASGYTFTDYVMHWVKQSPGQGLEWIGTIIPLIDTTSYNQKFKGKATLTADKSSNTAYMELSRLTSEDSAVYYCARTSPYYYSSYDVMDAWGQGASVTVSS
VL: NIQLTQSPSLLSASVGDRVTLSCKGSQNINNYLAWYQQKLGEAPKLLIYKTNNLQTGIPSRFSGCGSGTDYTLTISSLHSEDLATYYCYQYDNGYTFGAGTKLELK
In experiment [8], B7 returned a Kd of at most 37 pM. In experiment [6], the kon was at least 1e+07 M⁻¹ s⁻¹.

B8: BCU-7A6-C2 (antibody, V domains shown)
VH: EVQLVESGGGLVQPRGSLKLSCAASGFDFNSYGMSWVRQAPGKGLDLVADISSKSYNYATYYADSVKDRFTISRDDSQSMVYLQMDNLKTEDTALYYCTESLELGGAYWGQGTLVTVSS
VL: DIQMTQSPPSLSASLGDEVTITCQASQNINKFIAWYQQKPGKAPRLLIRYTSTLKSGTPSRFSGSGSGRDYSFSISNVESEDIASYYCLQYDSLPWTFGGGTKLELK
notes: Rat hybridoma anti-human VEGFR II monoclonal antibody, isotype IgG2b/κ
For the molecule B8, in experiment [1], the binding result is given as “binds”.

B9: BDI-6A3-A9 (antibody, V domains shown)
VH: EVQLVESGGGLVQPGRSLKFSCAASGFSFSDSAMAWVRQAPKKGLEWVATIIYDGSGTYYRDSVKGRFTISRDNAKSTLYLQMDSLRSEDTATYYCARLGFNYGNYGYYVMDAWGQGASVTVSS
VL: QFTLTQPKSVSGSLRNTITIPCERSSGDIGDSYVSWYQQHLGRPPINVIFADDQRPSEVSDRFSGSIDSSSNSASLTITNLQMDDEADYFCQSYDSNIDINIVFGGGTKLTVL
As to B9, the dissociation constant (Kd) in experiment [8] was at most 670 pM. The kon in experiment [6] is at least 1e+07 M⁻¹ s⁻¹.
